This note sets out measurements from US20180057581A1 (MorphoSys, published 2018).

What all share (assay): MSD specificity profiling, coated protein, Camille at 10 nM
Assay [1] concerns the target Aminogylcosidase (Aspergillus niger) (Aspergillus niger). The protocol:
(§1) For this specificity profiling test the different proteins and controls were coated on two 384-well MSD plates with a concentration of 1 μg/ml at 4° C. over night. Plates were blocked with BSA and washed three times with PBS with 0.05% (v/v) Tween 20. Antibody samples were diluted to 100 nM and 10 nM in assay buffer (PBS with 0.5% (w/v) BSA, 0.05% (v/v) Tween 20). […] Samples and controls were incubated for three hours at room temperature. The plates were washed three times and 30 μl detection antibody (ECL-labeled anti-human Fab) were added per well and incubated for 1 h. After washing, MSD Read Buffer T with surfactant was added and electrochemiluminescence signals were detected using a Sector Imager 6000 (Meso Scale Discovery, Gaithersburg, Md., USA).

For assay [2], the target named is Anti-human Fc (Dianova, #109-005-098). The method, then:
as §1

Assay [3] concerns the target Cell surface receptor 2 (human) (human). The method, then:
as §1

The target in the next assay is Cytochrome c (cow) (cow, UniProt P62894 2-105). The protocol: as §1
A further assay concerns the target T1, Ovalbumin (chicken) (chicken, UniProt P01012 2-386).
T1 sequence (looked up): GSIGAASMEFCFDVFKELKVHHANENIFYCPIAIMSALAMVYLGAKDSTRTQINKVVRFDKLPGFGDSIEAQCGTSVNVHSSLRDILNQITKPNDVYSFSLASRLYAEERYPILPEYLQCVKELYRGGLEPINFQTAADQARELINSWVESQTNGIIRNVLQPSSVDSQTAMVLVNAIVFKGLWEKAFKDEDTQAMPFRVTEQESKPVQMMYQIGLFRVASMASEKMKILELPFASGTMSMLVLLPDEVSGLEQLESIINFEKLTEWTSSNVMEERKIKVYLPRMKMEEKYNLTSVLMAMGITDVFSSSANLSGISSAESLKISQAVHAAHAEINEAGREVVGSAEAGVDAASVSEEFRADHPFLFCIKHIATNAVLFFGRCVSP
The method, then:
as §1

The target in the next assay is T2, human M-CSF (human, UniProt P09603 33-255, limits assumed).
T2 construct: also called M-CSF (human); CSF-1
T2 sequence: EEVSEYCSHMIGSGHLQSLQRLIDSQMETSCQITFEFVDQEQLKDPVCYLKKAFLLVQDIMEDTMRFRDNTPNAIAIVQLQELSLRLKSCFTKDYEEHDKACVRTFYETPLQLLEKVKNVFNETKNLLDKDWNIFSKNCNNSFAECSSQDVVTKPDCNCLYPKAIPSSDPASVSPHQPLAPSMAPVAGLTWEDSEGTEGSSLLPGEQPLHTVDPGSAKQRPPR
The protocol:
as §1

Another assay concerns the target T3, Trypsinogen (cow) (cow, UniProt P00760 18-246).
T3 sequence (looked up): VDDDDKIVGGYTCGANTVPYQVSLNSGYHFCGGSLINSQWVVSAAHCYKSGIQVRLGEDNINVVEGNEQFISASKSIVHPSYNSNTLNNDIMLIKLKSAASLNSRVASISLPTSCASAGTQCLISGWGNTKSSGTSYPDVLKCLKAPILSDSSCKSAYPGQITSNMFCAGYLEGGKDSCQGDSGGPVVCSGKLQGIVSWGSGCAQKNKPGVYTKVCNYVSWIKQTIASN
The protocol:
as §1

Chain of Aminogylcosidase (Aspergillus niger) (Aspergillus niger) (P69328 25-640): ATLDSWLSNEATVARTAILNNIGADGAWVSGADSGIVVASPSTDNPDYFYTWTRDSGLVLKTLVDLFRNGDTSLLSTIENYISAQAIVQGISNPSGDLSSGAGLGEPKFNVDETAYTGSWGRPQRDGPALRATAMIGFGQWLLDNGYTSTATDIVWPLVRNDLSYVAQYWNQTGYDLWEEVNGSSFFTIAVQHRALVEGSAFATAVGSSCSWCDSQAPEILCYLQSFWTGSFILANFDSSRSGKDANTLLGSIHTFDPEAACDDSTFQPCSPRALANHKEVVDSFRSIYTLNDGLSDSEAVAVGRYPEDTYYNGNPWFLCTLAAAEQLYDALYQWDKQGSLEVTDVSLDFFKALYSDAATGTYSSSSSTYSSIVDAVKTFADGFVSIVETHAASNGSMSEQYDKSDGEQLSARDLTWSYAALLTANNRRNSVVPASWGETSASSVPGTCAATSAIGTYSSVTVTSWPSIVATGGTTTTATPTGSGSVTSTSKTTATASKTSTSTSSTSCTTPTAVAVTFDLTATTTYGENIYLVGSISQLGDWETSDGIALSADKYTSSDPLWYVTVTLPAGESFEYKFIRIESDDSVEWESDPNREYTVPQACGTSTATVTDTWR
Chain of Cytochrome c (cow) (P62894 2-105 limits assumed): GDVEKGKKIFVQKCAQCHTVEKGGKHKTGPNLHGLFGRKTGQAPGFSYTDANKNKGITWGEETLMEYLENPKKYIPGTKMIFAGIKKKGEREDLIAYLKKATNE

B1: Camille (format not stated) (antibody, V domains shown)
VH: QVQLQQSGPGLVKPSQTLSLTCAISGESVSTSSAAWNWIRQSPSRGLEWLGRTYYRSKWKHEYAVSVKSRITINPDTSKNQFSLQLNSVTPEDTAVYYCARDRYYYSAFDYWGQGTLVTVSS
VL: QSALTQPASVSGSPGQSITISCTGTSSDVGGYNSVSWYQQHPGKAPKLLIYAVSNRPSGVSNRFSGSKSGNTASLTISGLQAEDEADYYCASYDERFTRVFGGGTKLTVLG
notes: also called Antibody Camille
Consider B1, for which the “signal normalized to reference antibody MOR03207” value in assay [1] amounted to 1 ratio; in assay [2], 1 ratio; in assay [3], 1 ratio; in the assay with Cytochrome c (cow) it was 1 ratio; with Ovalbumin (chicken), 1 ratio; in the assay with human M-CSF, 244 ratio. The “signal normalized to reference antibody MOR03207” value in the assay with Trypsinogen (cow) came out at 1 ratio.
